{"source": "paper PMC8894450", "about": "“Structural basis of leukotriene B4 receptor 1 activation” (Nature Communications, 2022)", "target": "T1, human dominant-negative Gαi1 (S47N, G203A, A326S and E245A) (human, UniProt P63096 1-354, S47N | G203A | A326S | E245A)", "T1 construct": "The alpha-helical domain had no clear density in the map; also called Gα subunit; Gαi subunit; source: Sf9 cells co-infected with baculoviruses encoding each component; co-purified with the BLT1/Gi complex", "T1 sequence (P63096 whole entry S47N/G203A/E245A/A326S, the tested form may be a part)": "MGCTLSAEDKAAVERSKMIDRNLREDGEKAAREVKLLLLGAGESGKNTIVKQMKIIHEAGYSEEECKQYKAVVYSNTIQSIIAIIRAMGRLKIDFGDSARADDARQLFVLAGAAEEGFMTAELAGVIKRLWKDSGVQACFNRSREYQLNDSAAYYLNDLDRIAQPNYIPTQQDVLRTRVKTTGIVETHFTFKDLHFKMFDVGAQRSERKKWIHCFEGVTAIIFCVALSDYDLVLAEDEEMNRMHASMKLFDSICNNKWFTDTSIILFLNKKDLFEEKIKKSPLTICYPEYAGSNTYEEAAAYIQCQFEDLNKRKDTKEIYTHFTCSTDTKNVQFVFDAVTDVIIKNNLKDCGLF", "test": "cryo-EM structure; single-particle cryo-EM of the LTB4-bound BLT1/Gi complex (with scFv16, NanoBiT tether); components co-expressed in Sf9, complex purified on amylose, TEV cut, gel filtration in 25 mM Hepes pH 7.5, 150 mM NaCl, LMNG/GDN/CHS; LTB4 300 nM throughout", "details": "both partners purified"}
{"binder": "engineered human leukotriene B4 receptor 1 (BLT1) with 4 thermostabilizing mutations and a C-terminal LgBiT fusion (receptor, human leukotriene B4 receptor 1 (BLT1), codon-optimized gene; model lacks the first 14 residues and the C-tail after residue 301; A TEV site stands between LgBiT and 2x MBP; LgBiT on the receptor pairs with HiBiT on Gbeta1 (NanoBiT tethering strategy); also called BLT1R; the receptor; source: Sf9 cells co-infected with baculoviruses encoding each component; complex purified (amylose column, TEV …)) MNTTSSAAPPSLGVEFISLLAIILLSVALAVGLPGNSFVVWSILKRMQKRSVTALMVLNLALADLAVLLTAPFFLHFLAQGTWSFGLAGCRLCHYVCGVSMYASVWLITAMSLDRSLAVARPFVSQKLRTKAMARRVLAGIWVLSFLLATPVLAYRTVVPWKTNMSLCFPRYPSEGHRAFHLIFEAVTGFLLPFLIVVASYSDIGRRLQARRFRRSRRTGRLVVLIILTFAAFWLPYHVVNLAEAGRALAGQAAGLGLVGKRLSLARNVLIALAFLSSSVNPVLYAFAGGGLLRSAGVGFVAKLLEGTGAEASSTRRGGSLGQTARSGPAALEPGPSESLTASSPLKLNELN", "values": [{"measurement": "binding result", "result": "binds"}]}
